± gives the standard deviation of the averaged measurements.
System: ATP
Assay: switch fluorescence ratio, 500 uM ATP over buffer (Cy3 cluster intensity, sum of 5 cycles each) (fold (ratio)); higher = stronger signal-on switching upon ATP binding; sequences stand for … in TCGTCGGCAGCGTCAGATGTGTATAAGAGACAGTTTTTTTTTTTTTTTTTTTTTTTTT…TC
Details: aptamer strand: ATP DNA aptamer (quencher-CACCTGGGGGAGTATTGCGGAGGAAGG + anchor), 100 nM annealed; ATP concentration: 500 uM
Procedure, shortened: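 Cy3-labelled switching-strand clusters on a modified Illumina MiSeq flow-cell were annealed to 100 nM quencher-labelled ATP aptamer, imaged in selection buffer, then imaged after 15 min with 500 uM ATP at 22 °C. Five buffer/ATP cycles ran, with NaOH stripping and re-annealing between them. The fluorescence ratio is summed target-cycle over summed buffer-cycle Cy3 intensity per cluster, averaged per switch-domain sequence. Clusters outside 100-1000 RFU were excluded.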
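Further: ATP exposure 15 min at 22 °C before imaging.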

Row | Sequence | switch fluorescence ratio
1 | GGCCATTGTG | 0.982 ± 0.023
2 | GGCCCCATGC | 1.24 ± 0.034
3 | GGCCCGGGGA | 1.02 ± 0.042
4 | GGCCGAGAGG | 0.993 ± 0.053
5 | GGCCGAGGGG | 1.01 ± 0.03
6 | GGCCGATCAT | 1.02 ± 0.04
7 | GGCCGGATAG | 1.03 ± 0.021
8 | GGCCGGTGAA | 0.9843 ± 0.0045
9 | GGCCGGTTGC | 1.03 ± 0.071
10 | GGCCGTTTGA | 1.02 ± 0.048
11 | GGCCTACCGC | 1.13 ± 0.036
12 | GGCCTATAAC | 1 ± 0.021
13 | GGCCTGGACG | 1.05 ± 0.015
14 | GGCCTGGGGT | 0.996 ± 0.029
15 | GGCCTTTTAA | 1.04 ± 0.029
16 | GGCGAAGGAG | 0.999 ± 0.011
17 | GGCGAGACGC | 0.981 ± 0.031
18 | GGCGCAAAGC | 1.487 ± 0.013
19 | GGCGCAAGCT | 1.02 ± 0.025
20 | GGCGCAGCTG | 0.96511 ± 0.0006
21 | GGCGCATGGA | 0.991 ± 0.023
22 | GGCGCCGGCT | 0.992 ± 0.079
23 | GGCGCGTTAG | 1.02 ± 0.06
24 | GGCGCTTATT | 0.963 ± 0.014
25 | GGCGCTTGTT | 0.975 ± 0.034

Row | Sequence | switch fluorescence ratio
26 | GGCGGAAGTC | 1.01 ± 0.013
27 | GGCGGAGCTA | 1.03 ± 0.049
28 | GGCGGATATA | 0.9553 ± 0.0058
29 | GGCGGATATT | 0.9975 ± 0.0069
30 | GGCGGCCGGA | 1.002 ± 0.0084
31 | GGCGGCGGGG | 1.03 ± 0.049
32 | GGCGGCTTGG | 1.005 ± 0.0031
33 | GGCGGGAATT | 0.972 ± 0.031
34 | GGCGGGACGG | 1.01 ± 0.033
35 | GGCGGGGACC | 0.982 ± 0.025
36 | GGCGGGGGAG | 1.03 ± 0.021
37 | GGCGGGGGCC | 0.969 ± 0.016
38 | GGCGGGGTCG | 1.01 ± 0.038
39 | GGCGGGGTGC | 1.016 ± 0.0073
40 | GGCGGGTTGG | 0.998 ± 0.048
41 | GGCGTAAAAG | 1.01 ± 0.038
42 | GGCGTAAGCT | 1.012 ± 0.0095
43 | GGCGTAAGGG | 1.01 ± 0.019
44 | GGCGTAGTCA | 0.9855 ± 0.0022
45 | GGCGTAGTGC | 1.02 ± 0.016
46 | GGCGTCCTGG | 1.03 ± 0.029
47 | GGCGTCCTTT | 0.994 ± 0.031
48 | GGCGTGGGGA | 1.02 ± 0.017
49 | GGCGTGTGCG | 0.98 ± 0.039
50 | GGCGTTCGCT | 0.984 ± 0.026

Row | Sequence | switch fluorescence ratio
51 | GGCGTTTGTC | 1.03 ± 0.032
52 | GGCGTTTTTG | 1.02 ± 0.046
53 | GGCTAATGCG | 1.01 ± 0.036
54 | GGCTACCAGT | 0.96 ± 0.038
55 | GGCTACGAGA | 1.04 ± 0.018
56 | GGCTACTGGA | 1.03 ± 0.095
57 | GGCTAGCCAG | 1.01 ± 0.011
58 | GGCTATCTTT | 1 ± 0.029
59 | GGCTATGGGG | 1 ± 0.013
60 | GGCTCACGGT | 0.98015 ± 0.00082
61 | GGCTGAAGTT | 0.994 ± 0.022
62 | GGCTGCGCGG | 1 ± 0.032
63 | GGCTGGACGG | 1.01 ± 0.011
64 | GGCTGGGCAG | 0.981 ± 0.035
65 | GGCTGGGGGT | 1.1 ± 0.07
66 | GGCTGTAAGT | 0.9844 ± 0.0066
67 | GGCTGTACTT | 1.03 ± 0.047
68 | GGCTGTATTT | 0.9965 ± 0.0031
69 | GGCTTAAAAA | 0.982 ± 0.021
70 | GGCTTAAGAT | 0.998 ± 0.017
71 | GGCTTACAGT | 0.9941 ± 0.0061
72 | GGCTTCTGGG | 0.98911 ± 0.00037
73 | GGCTTGCTAG | 1.001 ± 0.0046
74 | GGCTTGGCCC | 1.015 ± 0.0063
75 | GGCTTGGGGA | 1.01 ± 0.036

Row | Sequence | switch fluorescence ratio
76 | GGCTTTACCT | 1.101 ± 0.0097
77 | GGCTTTGGAC | 0.994 ± 0.055
78 | GGCTTTGTCC | 0.991 ± 0.032
79 | GGCTTTTACT | 1.04 ± 0.019
80 | GGCTTTTTAC | 1.06 ± 0.036
81 | GGGAAAAATT | 1.013 ± 0.006
82 | GGGAAAAGTT | 1 ± 0.04
83 | GGGAAACGGG | 0.995 ± 0.011
84 | GGGAAAGAGC | 1.151 ± 0.0064
85 | GGGAAAGCAC | 1.12 ± 0.021
86 | GGGAAAGGAG | 0.989 ± 0.035
87 | GGGAAAGGTA | 0.986 ± 0.011
88 | GGGAAAGTGG | 1.012 ± 0.008
89 | GGGAAATCGG | 0.986 ± 0.014
90 | GGGAAATGGG | 0.9747 ± 0.0087
91 | GGGAAATGTG | 1 ± 0.023
92 | GGGAACACTT | 0.998 ± 0.025
93 | GGGAACGGAA | 2.4 ± 1.8
94 | GGGAAGAGGA | 0.979 ± 0.025
95 | GGGAAGCCGT | 1.14 ± 0.23
96 | GGGAAGGGGT | 1.01 ± 0.055
97 | GGGAAGGGTG | 1.08 ± 0.089
98 | GGGAAGGTAC | 1.047 ± 0.0014
99 | GGGAAGGTCT | 0.994 ± 0.03
100 | GGGAAGTCAC | 1.121 ± 0.0039
